One assay concerns the target CsgG (Escherichia coli) (UniProt P0AEA2). The settings on record: cited from earlier work.
The target in a further assay is CsgG-6xHis (E. coli) (UniProt P0AEA2). The assay can be described thus: SPR; Biacore 3000, NTA sensor chip activated with NiSO4; CsgG-His (200 nM) immobilised via the His-tag; N22 peptide injected at 50 μl/min, 20 − 1 nM; 10 mM HEPES, 150 mM NaCl, 0.36 mM DDM, pH 8.0; non-activated reference flow cell; 1:1 binding model.

On to “CsgA N6 peptide N6 (from UniProt P28307)”, for which, in the assay with CsgG (Escherichia coli), the dissociation constant (Kd) was 28.3 µM.
In the assay with CsgG-6xHis (E. coli), CsgA N22 peptide showed a dissociation constant Kd of 0.53 µM.

As a reminder, the Kd is the free concentration of one partner at which half of the binding sites on the other are occupied at equilibrium, for simple one-to-one binding.

The values above are taken from publication PMC7217966.
